Data on 1 molecule can be found in PMC7062719, “Full-length human GLP-1 receptor structure without orthosteric ligands” (Nature Communications, 2020).

The experiment addresses T1, Human GLP-1R (Arg24-Leu422) fragment (human, UniProt P43220).
T1 construct: GLP-1 receptor, human, residues Arg24-Leu422; N-terminal HA-FLAG-B2-HRV14-3C tags and C-terminal HPC4-HRV14-3C-10x His tags; no 3C cleavage is described; also called detergent solubilized GLP-1R; source: Sf9 insect cells, baculovirus, co-expressed with DNGαs and Gβ1γ2; solubilised in LMNG/CHS, purified as a complex (HPC4 resin, SEC); not shown: HPC4, C-terminal, kept
Kind of experiment: SEC + other: negative stain EM; Fab7F38 added at an estimated 1:1 ratio to the HPC4-purified GLP-1R–semaglutide–Gs–Nb35 complex, SEC on Superose 6 Increase (20 mM HEPES pH 7.5, 100 mM NaCl, 2 mM MgCl2, 1 μM semaglutide, LMNG/CHS), peak fraction used for single-particle 2D class averages. Conditions: both partners purified.

T1 sequence (P43220 24-422): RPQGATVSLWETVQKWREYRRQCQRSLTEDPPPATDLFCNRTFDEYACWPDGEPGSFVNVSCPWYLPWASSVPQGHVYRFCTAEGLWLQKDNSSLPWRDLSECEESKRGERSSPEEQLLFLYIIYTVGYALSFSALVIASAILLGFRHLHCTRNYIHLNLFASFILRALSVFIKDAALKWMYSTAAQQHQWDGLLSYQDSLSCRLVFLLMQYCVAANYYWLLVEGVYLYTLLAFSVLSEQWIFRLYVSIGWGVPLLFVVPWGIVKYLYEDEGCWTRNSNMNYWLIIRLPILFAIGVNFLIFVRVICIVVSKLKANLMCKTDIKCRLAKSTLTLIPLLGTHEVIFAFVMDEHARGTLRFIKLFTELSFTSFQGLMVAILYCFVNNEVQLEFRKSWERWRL

B1: Fab7F38 (Fab, V domains shown)
VH: EVQLQQSGPELVKPGASVKMSCKAPGYTFTSYVTHWVKQKPGQGLEWIGYINPYNDSPKYNEKYKAKATLTSDKSSSTVYMELSSLTSEDSAVYYCARIGYFRYDEGGNYALDYWGQGTSVTVSS
VL: QIVLTQSPAIMSASPGEKVTISCSASSSVSYMYWYQQKPGSSPKPWIYRTSKLASGVPVRFSGSGSGTSYSLTISNMEAEDAATYYCQQFHTYPWTFGGGTKLEIK
notes: source: ExpiCHO-S cells, transient transfection, purified (Protein G Sepharose, SEC Superdex 75)
Regarding B1, the binding result is “binds”.
